# Experimental data as given in PMC5771398, “Structural basis for assembly of the CBF3 kinetochore complex” (The EMBO Journal, 2017).
# Where a chain is given by its changes, count along the chain named.
# B1: 56 bp WT CEN3 (dsDNA)
# DNA 1: TATTAGTGTATTTGATTTCCGAAAGTTAAAAAAGAAATAGTAAGAAATATATATTT
# DNA 2: AAATATATATTTCTTACTATTTCTTTTTTAACTTTCGGAAATCAAATACACTAATA
# B2: 33 bp wild-type CEN3, unlabelled competitor (dsDNA)
# DNA 1: AAATATTAGTGTATTTGATTTCCGAAAGTTAAA
# DNA 2: TTTAACTTTCGGAAATCAAATACACTAATATTT
# B3: 33 bp CCG mutant CEN3 (dsDNA)
# DNA 1: B2 DNA 1 with C22G, C23A, G24T
# DNA 2: B2 DNA 2 with C10A, G11T, G12C
# B4: 33 bp double mutant CEN3 (dsDNA)
# DNA 1: AAATATTAGAACATTTGATTTGATAAAGTTAAA
# DNA 2: TTTAACTTTATCAAATCAAATGTTCTAATATTT
# Legend:
# Conditions in all cases: protein: recombinant;recombinant;recombinant; tags: C-terminal TEV-cleavable double-StrepTactin tag (cleaved);;; chain copies: 2;1;1; blunt (annealed; only one strand given)
# [1] = target: Cep3 deltaGal4;Ctf13;Skp1 (wild type) (Saccharomyces cerevisiae;Saccharomyces …, UniProt P40969;P35203;P52286 47-608;1-478;1-194, ||); assay: EMSA; lambda phosphatase, 1 mM MnCl2; 0.3-1 uM protein; EMSA: complex (final buffer 10 mM HEPES, 300 mM NaCl, 1 mM DTT) mixed with DNA, 200 units lambda phosphatase and 1 mM MnCl2, 30 C 30 min, 0.8% agarose gel in TBE; binding pH not stated
# [2] = target: T1, Cep3 (wild type, core complex);Ctf13;Skp1 (wild type) (Saccharomyces cerevisiae;Saccharomyces …, UniProt P40969;P35203;P52286 1-608;1-478;1-194, ||); assay: EMSA; lambda phosphatase, 1 mM MnCl2; 0.3-1 uM protein, 0.1 uM DNA; EMSA: complex (final buffer 10 mM HEPES, 300 mM NaCl, 1 mM DTT) mixed with DNA, 200 units lambda phosphatase and 1 mM MnCl2, 30 C 30 min, 0.8% agarose gel in TBE; binding pH not stated
# [3] = target: Cep3 (wild type, core complex);Ctf13;Skp1delta (Saccharomyces cerevisiae;Saccharomyces …, UniProt P40969;P35203;P52286 1-608;1-478;1-194, ||del37-64); assay: EMSA; no lambda phosphatase; 1 uM protein, 0.1 uM DNA; EMSA: complex (final buffer 10 mM HEPES, 300 mM NaCl, 1 mM DTT) mixed with DNA, 200 units lambda phosphatase and 1 mM MnCl2, 30 C 30 min, 0.8% agarose gel in TBE; binding pH not stated
# [4] = target: T1, Cep3 (wild type, core …); assay: competition; EMSA, competitor 0.4-1.2 uM vs 0.1 uM N2; EMSA: complex (final buffer 10 mM HEPES, 300 mM NaCl, 1 mM DTT) mixed with DNA, 200 units lambda phosphatase and 1 mM MnCl2, 30 C 30 min, 0.8% agarose gel in TBE; binding pH not stated
# [5] = target: T1, Cep3 (wild type, core …); assay: competition; EMSA, competitor 0.4-1.2 uM vs 0.1 uM N2; same effect as CCG mutant; EMSA: complex (final buffer 10 mM HEPES, 300 mM NaCl, 1 mM DTT) mixed with DNA, 200 units lambda phosphatase and 1 mM MnCl2, 30 C 30 min, 0.8% agarose gel in TBE; binding pH not stated
# T1 sequence (P40969 whole entry, chain 1 of 3): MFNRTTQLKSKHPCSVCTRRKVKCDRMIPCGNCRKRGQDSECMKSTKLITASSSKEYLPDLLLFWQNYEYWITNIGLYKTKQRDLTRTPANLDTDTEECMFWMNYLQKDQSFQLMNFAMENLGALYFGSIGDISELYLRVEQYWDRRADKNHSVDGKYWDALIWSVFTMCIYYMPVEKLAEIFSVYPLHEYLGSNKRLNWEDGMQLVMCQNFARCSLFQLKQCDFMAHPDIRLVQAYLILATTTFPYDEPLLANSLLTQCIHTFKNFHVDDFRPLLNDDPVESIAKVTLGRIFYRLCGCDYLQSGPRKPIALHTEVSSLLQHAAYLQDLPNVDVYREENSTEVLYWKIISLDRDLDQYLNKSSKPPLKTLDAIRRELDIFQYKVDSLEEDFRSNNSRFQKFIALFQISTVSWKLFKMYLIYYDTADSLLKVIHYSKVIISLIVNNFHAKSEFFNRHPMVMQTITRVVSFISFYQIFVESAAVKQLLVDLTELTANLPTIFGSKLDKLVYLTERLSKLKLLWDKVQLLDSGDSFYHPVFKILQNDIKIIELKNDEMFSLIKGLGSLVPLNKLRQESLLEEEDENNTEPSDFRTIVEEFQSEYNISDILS
# T1 sequence (P35203 whole entry, chain 2 of 3): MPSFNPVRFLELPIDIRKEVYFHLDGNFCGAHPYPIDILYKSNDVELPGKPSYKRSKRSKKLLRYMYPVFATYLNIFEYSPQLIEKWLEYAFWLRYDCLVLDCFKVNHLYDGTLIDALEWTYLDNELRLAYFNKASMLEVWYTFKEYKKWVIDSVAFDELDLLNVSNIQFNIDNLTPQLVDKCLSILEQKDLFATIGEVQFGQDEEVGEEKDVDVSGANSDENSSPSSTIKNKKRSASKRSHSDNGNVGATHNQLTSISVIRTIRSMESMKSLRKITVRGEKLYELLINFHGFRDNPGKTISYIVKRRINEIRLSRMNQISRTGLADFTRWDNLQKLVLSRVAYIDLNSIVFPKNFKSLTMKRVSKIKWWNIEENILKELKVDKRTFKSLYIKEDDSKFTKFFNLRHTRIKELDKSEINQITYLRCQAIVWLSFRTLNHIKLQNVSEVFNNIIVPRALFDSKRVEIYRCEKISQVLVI
# T1 sequence (P52286 whole entry, chain 3 of 3): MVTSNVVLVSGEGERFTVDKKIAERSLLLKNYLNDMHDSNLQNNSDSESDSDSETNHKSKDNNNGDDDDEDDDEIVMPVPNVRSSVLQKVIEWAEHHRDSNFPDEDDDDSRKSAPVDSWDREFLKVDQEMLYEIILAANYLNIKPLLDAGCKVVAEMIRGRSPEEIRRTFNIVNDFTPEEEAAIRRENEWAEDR
# Sequence of Cep3 deltaGal4;Ctf13;Skp1 (wild type) (P40969 47-608, stated change not applied, chain 1 of 3): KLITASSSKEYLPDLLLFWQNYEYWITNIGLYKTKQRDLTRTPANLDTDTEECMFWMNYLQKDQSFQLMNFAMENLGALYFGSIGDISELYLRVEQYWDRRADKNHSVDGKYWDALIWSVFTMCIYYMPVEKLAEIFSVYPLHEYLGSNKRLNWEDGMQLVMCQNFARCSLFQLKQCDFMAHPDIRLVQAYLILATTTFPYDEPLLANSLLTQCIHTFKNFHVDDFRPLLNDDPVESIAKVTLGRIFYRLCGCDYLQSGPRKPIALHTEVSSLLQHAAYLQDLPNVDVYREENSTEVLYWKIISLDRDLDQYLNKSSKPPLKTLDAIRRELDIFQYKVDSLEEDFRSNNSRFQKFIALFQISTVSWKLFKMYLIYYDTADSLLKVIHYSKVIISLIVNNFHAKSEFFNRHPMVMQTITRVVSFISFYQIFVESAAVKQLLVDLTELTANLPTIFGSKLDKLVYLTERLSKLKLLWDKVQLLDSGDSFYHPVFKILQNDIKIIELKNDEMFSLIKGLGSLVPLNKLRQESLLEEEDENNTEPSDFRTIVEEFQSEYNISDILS
# Sequence of Cep3 deltaGal4;Ctf13;Skp1 (wild type) (P35203 whole entry, stated change not applied, chain 2 of 3, the tested form may be a part): as the sequence (P35203 whole entry, chain 2 of 3) above
# Sequence of Cep3 deltaGal4;Ctf13;Skp1 (wild type) (P52286 whole entry, stated change not applied, chain 3 of 3, the tested form may be a part): as the sequence (P52286 whole entry, chain 3 of 3) above
# Sequence of Cep3 (wild type, core complex);Ctf13;Skp1delta (P40969 whole entry, stated change not applied, chain 1 of 3): as the sequence (P40969 whole entry, chain 1 of 3) above
# Sequence of Cep3 (wild type, core complex);Ctf13;Skp1delta (P35203 whole entry, stated change not applied, chain 2 of 3): as the sequence (P35203 whole entry, chain 2 of 3) above
# Sequence of Cep3 (wild type, core complex);Ctf13;Skp1delta (P52286 other isoform, or with tags, fused parts or gaps ||del37-64 | mutant, chain 3 of 3): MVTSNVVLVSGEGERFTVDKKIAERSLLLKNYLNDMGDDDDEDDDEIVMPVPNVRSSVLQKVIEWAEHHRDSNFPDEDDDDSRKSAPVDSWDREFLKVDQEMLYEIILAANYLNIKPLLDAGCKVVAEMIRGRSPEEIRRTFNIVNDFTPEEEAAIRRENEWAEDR
binder,measurement,setting,value
B1,binding result,[1],no binding
same,binding result,[2],binds
same,binding result,[3],binds
B2,binding result,[4],binds
B3,binding result,[4],no binding
B4,binding result,[5],no binding
